Where a chain is given by its changes, count along the chain named. Names may count otherwise.

For orientation: Km means the substrate concentration at which the rate is half of its maximum. A word on the kcat: it is the number of substrate molecules converted per active site and unit of time at saturation.

Substrate in this series: O=[N+]([O-])c1ccc(O[C@@H]2O[C@H](CO)[C@@H](O)[C@H](O)[C@H]2O)cc1
As to the kind of experiment: purified protein. The following applies: 1 hour assay.

[1] abbreviates: average of two wild-type replicates (WT-1, WT-2).

B1: β-glucosidase B (BglB) (Paenibacillus polymyxa) (protein)
chain: MSENTFIFPATFMWGTSTSSYQIEGGTDEGGRTPSIWDTFCQIPGKVIGGDCGDVACDHFHHFKEDVQLMKQLGFLHYRFSVAWPRIMPAAGIINEEGLLFYEHLLDEIELAGLIPMLTLYHWDLPQWIEDEGGWTQRETIQHFKTYASVIMDRFGERINWWNTINEPYCASILGYGTGEHAPGHENWREAFTAAHHILMCHGIASNLHKEKGLTGKIGITLNMEHVDAASERPEDVAAAIRRDGFINRWFAEPLFNGKYPEDMVEWYGTYLNGLDFVQPGDMELIQQPGDFLGINYYTRSIIRSTNDASLLQVEQVHMEEPVTDMGWEIHPESFYKLLTRIEKDFSKGLPILITENGAAMRDELVNGQIEDTGRHGYIEEHLKACHRFIEEGGQLKGYFVWSFLDNFEWAWGYSKRFGIVHINYETQERTPKQSALWFKQMMAKNGF
Consider B1, for which, under setting [1], the Km came out at 9.8 ± 2.2 mM and the kcat was found to be 622.0 ± 45.8 min⁻¹.

B2: β-glucosidase B (BglB) (Paenibacillus polymyxa; I48K) (protein)
chain: B1 chain with I48K
As for B2, where the note is “technical triplicate”, the Km was 4.2 ± 0.1 mM and the kcat stood at 299.9 ± 2.4 min⁻¹.

B3: β-glucosidase B (BglB) (Paenibacillus polymyxa; I23A) (protein)
chain: B1 chain with I23A
Consider B3, for which, under “technical triplicate”, the Km stood at 17.1 ± 1.1 mM and the kcat is 92.7 ± 2.1 min⁻¹.

B4: β-glucosidase B (BglB) (Paenibacillus polymyxa; I23V) (protein)
chain: B1 chain with I23V
As to B4, where the note is “technical triplicate”, the Km came to 12.7 ± 0.53 mM and the kcat amounted to 564.0 ± 7.5 min⁻¹.

B5: β-glucosidase B (BglB) (Paenibacillus polymyxa; A360S) (protein)
chain: B1 chain with A360S
As for B5, under “technical triplicate”, the Km worked out at 12.7 ± 1.4 mM and the kcat worked out at 92.8 ± 3.2 min⁻¹.

The values above are taken from article doi:10.1101/2020.10.07.330233v1.
